According to patent publication US20250041437A1, “HUMANIZED MUC1 ANTIBODY AND ANTIBODY DRUG CONJUGATE” (Sun Pharma Advanced Research Company Limited, priority 2023, published 2025):
Numbering of substitutions follows the chain as printed.

B1: SP66: CDR-grafted humanized 5F3; VH SEQ ID NO: 5, VL SEQ ID NO: 6 (antibody, V domains shown)
VH: EIQLVQSGAEVKKPGSSVKVSCKASGHSITRGSSWHWMRQAPGQGLEWIGYIHYGGGTSYNPSLKSRATLTVDTSTNTAYMELSSLRSEDTAFYFCARYSYDITYRWFFDVWGQGTLVTVSS
VL: DIQMTQSPSTLSASVGDRVTITCRASQNIGTSIHWFQQKPGKAPKLLMYRASESISGVPSRFSGSGSGTEFTLTISSLQPDDFATYYCQQNNNWPLTFGQGTKVEVK
B2: HM3 LM2: variant of SP66; VH HM3 SEQ ID NO: 9, VL LM2 SEQ ID NO: 13 (antibody, V domains shown)
VH: B1 VH with A24V, S25T, V72R
VL: B1 VL with F36Y, M48I, Y49K
B3: HM3 LM3: variant of SP66; VH HM3 SEQ ID NO: 9, VL LM3 SEQ ID NO: 14 (antibody, V domains shown)
VH: B1 VH with A24V, S25T, V72R
VL: B1 VL with F36Y, M48I, Y49K, R50Y
B4: HM2 LM2: variant of SP66; VH HM2 SEQ ID NO: 8, VL LM2 SEQ ID NO: 13 (antibody, V domains shown)
VH: B1 VH with A24V, S25T, A68I, L70I, V72R
VL: B1 VL with F36Y, M48I, Y49K
B5: HM4 LM3: variant of SP66; VH HM4 SEQ ID NO: 10, VL LM3 SEQ ID NO: 14 (antibody, V domains shown)
VH: B1 VH with A24V, S25T, V72R, A79F
VL: B1 VL with F36Y, M48I, Y49K, R50Y
B6: HM5 LM2: variant of SP66; VH HM5 SEQ ID NO: 11, VL LM2 SEQ ID NO: 13 (antibody, V domains shown)
VH: B1 VH with A24V, S25T, A68I, L70I, V72R, A79F
VL: B1 VL with F36Y, M48I, Y49K
B7: HM5 LM3: variant of SP66; VH HM5 SEQ ID NO: 11, VL LM3 SEQ ID NO: 14 (antibody, V domains shown)
VH: B1 VH with A24V, S25T, A68I, L70I, V72R, A79F
VL: B1 VL with F36Y, M48I, Y49K, R50Y
B8: HM2 LM3: variant of SP66; VH HM2 SEQ ID NO: 8, VL LM3 SEQ ID NO: 14 (antibody, V domains shown)
VH: B1 VH with A24V, S25T, A68I, L70I, V72R
VL: B1 VL with F36Y, M48I, Y49K, R50Y
B9: HM4 LM2: variant of SP66; VH HM4 SEQ ID NO: 10, VL LM2 SEQ ID NO: 13 (antibody, V domains shown)
VH: B1 VH with A24V, S25T, V72R, A79F
VL: B1 VL with F36Y, M48I, Y49K
B10: chi 5F3: chimeric anti-MUC1 SEA antibody of WO 2021/186427; variable regions SEQ ID NOs: 42 and 43; parent of the humanized antibodies (antibody, V domains shown)
VH: MRVLILLCLFTAFPGVLSDVQVQESGPDLVKPSQSLSLTCTVTGHSITRGSSWHWIRQFPGNKLEWMGYIHYGGGTSYNPSLKSRISITRDTSKNQFFLQLNSVTTEDTATFFCARYSYDITYRWFFDVWGAGTTVIVSS
VL: MVSTPQFLVFLLFWIPASRGDILLTQSPAILSVSPGERVSFSCRASQNIGTSIHWYQQRKNGSPRLLIKYASESISGIPSRFSGSGSGTDFTLSINSVESEDMADYYCQQNNNWPLTFGAGTKLELK
notes: chimeric anti-MUC1 SEA antibody of WO 2021/186427; parent of the humanized antibodies

Columns and labels:
HT-29 cells = test: Growth inhibition of human cancer cell lines, HT-29; assay type: cell-based; conditions: HT-29, no MUC1 expressing
Method: (§1) Human cancer cell lines (such as Colo357, HT29, SKOV3, BxPC3 and T47D) were seeded at 5000 cells/well in a 96-well plate flat bottom clear plate and allowed to adhere overnight. Next day, antibody/ADCs were added to these cells at the mentioned concentration or at a mentioned concentration range. Post 5-7 days of treatment, 20 μl of presto blue dye was added to wells and absorbance was recorded at 570 nm (600 nm reference wavelength). Percent survival was calculated against wells containing untreated cells in complete media and IC50 was calculated in Graphpad Prism.

[1] = target: T1, human MUC1-expressing SKOV3 cell line (Homo sapiens, UniProt P15941); test: Binding by flow cytometry on SKOV3 cell line
T1 construct: endogenous in cells; host or cells: SKOV3, COLO357, HT29 (human cancer cell lines)
T1 sequence (P15941 24-1255): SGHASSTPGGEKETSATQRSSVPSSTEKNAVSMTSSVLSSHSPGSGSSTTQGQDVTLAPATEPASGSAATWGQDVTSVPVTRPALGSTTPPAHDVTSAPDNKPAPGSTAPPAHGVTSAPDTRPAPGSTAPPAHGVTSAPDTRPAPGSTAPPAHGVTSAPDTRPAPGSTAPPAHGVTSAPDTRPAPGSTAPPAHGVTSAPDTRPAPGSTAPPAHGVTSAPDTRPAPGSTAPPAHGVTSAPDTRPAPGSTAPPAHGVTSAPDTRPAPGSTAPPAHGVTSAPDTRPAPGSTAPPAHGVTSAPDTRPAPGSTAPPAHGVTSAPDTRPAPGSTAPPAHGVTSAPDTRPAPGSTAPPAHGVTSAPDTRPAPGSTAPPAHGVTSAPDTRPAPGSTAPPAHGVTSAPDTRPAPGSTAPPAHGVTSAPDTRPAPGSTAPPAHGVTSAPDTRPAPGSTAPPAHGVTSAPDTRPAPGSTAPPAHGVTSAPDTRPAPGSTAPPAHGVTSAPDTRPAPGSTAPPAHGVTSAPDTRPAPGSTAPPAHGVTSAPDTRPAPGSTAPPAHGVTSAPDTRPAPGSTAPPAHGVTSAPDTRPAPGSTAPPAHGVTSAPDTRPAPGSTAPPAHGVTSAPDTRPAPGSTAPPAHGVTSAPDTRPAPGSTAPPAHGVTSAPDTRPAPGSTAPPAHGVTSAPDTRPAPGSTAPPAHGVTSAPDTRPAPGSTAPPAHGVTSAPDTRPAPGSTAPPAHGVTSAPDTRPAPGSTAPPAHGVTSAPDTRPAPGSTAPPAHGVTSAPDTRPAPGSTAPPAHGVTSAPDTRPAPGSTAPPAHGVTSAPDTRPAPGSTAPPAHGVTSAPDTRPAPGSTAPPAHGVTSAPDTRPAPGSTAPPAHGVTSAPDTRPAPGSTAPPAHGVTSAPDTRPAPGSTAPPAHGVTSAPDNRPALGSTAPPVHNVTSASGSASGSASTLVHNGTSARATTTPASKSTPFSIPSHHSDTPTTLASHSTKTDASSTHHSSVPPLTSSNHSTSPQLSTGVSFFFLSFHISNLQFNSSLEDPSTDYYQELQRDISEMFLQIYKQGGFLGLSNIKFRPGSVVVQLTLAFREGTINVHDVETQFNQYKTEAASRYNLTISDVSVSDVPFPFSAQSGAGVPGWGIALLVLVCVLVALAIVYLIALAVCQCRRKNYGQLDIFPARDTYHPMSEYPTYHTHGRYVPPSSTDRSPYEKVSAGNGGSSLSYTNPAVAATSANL
Source text: The CDR residues from mouse anti-MUC1 antibody (m5F3) VH- (SEQ ID NO: 1) and VL- (SEQ ID NO: 2) domains were identified according to the three antibody numbering systems and grafted onto the human framework region sequences VH- (SEQ ID NO: 3) and VL- (SEQ ID NO: 4) domains respectively. CDRs from 5F3 were chemically synthesized and subsequently cloned into mammalian expression vectors. The expression vectors with humanized 5F3 heavy chain and light chain were named as SP66-HC and SP66-LC respectively. The VH domain of SP66 is SEQ ID NO: 5, and the VL domain of SP66 is SEQ ID NO: 6. The antibody expressed with SP66-HC and SP66-LC was named as SP66. SP66 was transiently expressed in CHO cells and purified by Protein-A affinity chromatography and evaluated for its binding to the human MUC1 SEA domain using flow cytometry on the human MUC1-expressing SKOV3 cell line (FIG. 1).
Dose dependent binding of surface MUC1 expression on human cancer cells using flow cytometer: Human cancer cell lines (COLO357, HT29 and SKOV3) or mouse cancer cell line expressing human MUC1 (DA3-TM) were harvested enzymatically using 0.25% Trypsin and 0.2% EDTA in Dulbecco's Phosphate Buffered Saline (D-PBS), washed with excess cell culture media and re-suspended at a cell density of 1-2×10^6/mL in the cell-line specific cell culture media. […]

[2] = system: COLO-357 pancreatic carcinoma cells; test: Growth inhibition of human cancer cell lines, COLO-357; conditions: COLO-357, high MUC1-SEA expressing
SKOV-3 cells = test: Growth inhibition of human cancer cell lines, SKOV-3; assay type: cell-based; conditions: SKOV-3, moderate MUC1 expressing
Method: as §1

[3] = target: T2, recombinant human MUC1-SEA (Homo sapiens, UniProt P15941); test: Binding strength by Surface Plasmon Resonance (SPR); conditions: Table 2
T2 construct: on recombinant human MUC1-SEA on SPR; purchased Acrobiosystems MU1-H52H9
T2 sequence (P15941 1039-1148 limits assumed): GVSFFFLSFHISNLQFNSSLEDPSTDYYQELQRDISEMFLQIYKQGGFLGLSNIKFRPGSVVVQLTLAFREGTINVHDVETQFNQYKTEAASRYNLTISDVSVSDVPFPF
Method: Binding strength assessment using Surface Plasmon Resonance (SPR): MUC1 antigen (Acrobiosystems, Cat: MU1-H52H9) was captured on the anti-His immobilized on CM5 chip at 5 μl/min flow rate for 60 s. Post this concentration range of 0-50 nM of antibody or ADC is passed over MUC1 antigen at a flow rate of 30 μl/min flow rate for 120 s, keeping dissociation time of 1800 s at 25°. The dose response generated is evaluated on BIAevaluation software for the calculation of affinity of antibody to antigen as measured by dissociation constant (KD).

[4] = target: T3, human MUC1 expressing DA3-TM cell line (Homo sapiens, UniProt P15941); test: Dose dependent binding by flow cytometry on DA3-TM cell line; conditions: MUC1 positive DA3-TM cell line
T3 construct: expressed in transfected cells; host or cells: DA3-TM (mouse cancer cell line)
T3 sequence (P15941 24-1255): as the sequence (P15941 24-1255) above
Source text: Dose dependent binding of surface MUC1 expression on human cancer cells using flow cytometer: Human cancer cell lines (COLO357, HT29 and SKOV3) or mouse cancer cell line expressing human MUC1 (DA3-TM) were harvested enzymatically using 0.25% Trypsin and 0.2% EDTA in Dulbecco's Phosphate Buffered Saline (D-PBS), washed with excess cell culture media and re-suspended at a cell density of 1-2×10^6/mL in the cell-line specific cell culture media. The anti-MUC1-SEA mAb (chimeric or humanized IgG)/ADC or the reference IgG antibody/ADC were added to cells at a concentration range of 0-50 nM. The cells were maintained at 4° C. for 1 hour and washed with the excess cell culture media. These cells were further stained with goat anti-human IgG, Fcγ, conjugated with Alexa Fluor 647 (Jackson Immuno Research, West Grove, PA, USA) for 1 hour at 4° C. The concentration for goat anti-human IgG, Fcγ was as per the manufacturer's instructions. Cells were further washed with the excess cell culture media and re-suspended in 100 μl of cell culture media. Cell-associated fluorescence was detected and recorded using flow cytometry (Beckman Coulter, Cytoflex). The mean intensity of fluorescence was obtained from FlowJo software and graph was plotted in Graphpad prism of concentration versus mean intensity of fluorescence.

Molecule	kd [3]	also measured
B1	–	cytotoxic effect / growth inhibition (in words) (HT-29 cells): No growth inhibition; binding by flow cytometry (in words) [1]: unable to bind; cytotoxic effect / growth inhibition (in words) [2]: No growth inhibition; cytotoxic effect / growth inhibition (in words) (SKOV-3 cells): No growth inhibition
B2	0.000492 s⁻¹	–
B3	0.00347 s⁻¹	–
B4	0.000255 s⁻¹	–
B5	0.000238 s⁻¹	–
B6	0.000213 s⁻¹	–
B7	0.000198 s⁻¹	–
B8	0.000188 s⁻¹	–
B9	0.000261 s⁻¹	–
B10	0.000188 s⁻¹	Kd [3]: 0.0427 nM; Kd [4]: 1 ± 0.1 nM
